Data taken from US20030166567.

Target: T1, 19-mer (SEQ ID NO:11) cleavage domain peptide
T1 chain: PRCGNPDVANYNFFPRKPK

B1: Proenzyme pro-MMP-9 (protein)
chain: APRQRQSTLVLFPGDLRTNLTDRQLAEEYLYRYGYTRVAEMRGESKSLGPALLLLQKQLSLPETGELDSATLKAMRTPRCGVPDLGRFQTFEGDLKWHHHNITYWIQNYSEDLPRAVIDDAFARAFALWSAVTPLTFTRVYSRDADIVIQFGVAEHGDGYPFDGKDGLLAHAFPPGPGIQGDAHFDDDELWSLGKGVVVPTRFGNADGAACHFPFIFEGRSYSACTTDGRSDGLPWCSTTANYDTDDRFGFCPSERLYTQDGNADGKPCQFPFIFQGQSYSACTTDGRSDGYRWCATTANYDRDKLFGFCPTRADSTVMGGNSAGELCVFPFTFLGKEYSTCTSEGRGDGRLWCATTSNFDSDKKWGFCPDQGYSLFLVAAHEFGHALGLDHSSVPEALMYPMYRFTEGPPLHKDDVNGIRHLYGPRPEPEPRPPTTTTPQPTAPPTVCPTGPPTVHPSERPTAGPTGPPSAGPTGPPTAGPSTATTVPLSPVDDACNVNIFDAIAEIGNQLYLFKDGKYWRFSEGRGSRPQGPFLIADKWPALPRKLDSVFEERLSKKLFFFSGRQVWVYTGASVLGPRRLDKLGLGADVAQVTGALRSGRGKMLLFSGRRLWRFDVKAQMVDPRSASEVDRMFPGVPLDTHDVFQYREKAYFCQDRFYWRVSSRSELNQVDQVGYVTYDILQCPED
- anti-activation (splicing) assay: conversion of pro-MMP-9 by stromilysin, followed by HPLC: Titrating the standard splicing reaction with the 19-mer (SEQ ID NO:11) peptide prevents the conversion of pro-MMP-9 into the prodomain and the active enzyme ... Splicing can be inhibited in a dose dependent manner with micromolar 19-mer (SEQ ID NO:11) peptide
